Measured values from US9884910B2, “Anti-PDGF-C antibodies” (ThromboGenics NV, priority 2012, dated 2018).

Key:
[1] = target: T1, 15-mer, overlapping peptides covering the entire human PDGF-C molecule (Homo sapiens, UniProt Q9NRA1); assay: Epitope mapping ELISA on 15-mer overlapping peptides; type: binding; conditions: peptide coated 10 μg/mL; antibody 1 μg/mL
T1 construct: host or cells: chemical synthesis
Description: The binding of anti-PDGF-C antibodies to 15-mer, overlapping peptides covering the entire human PDGF-C molecule was assessed by ELISA. Antibodies included in this analysis are the five antibodies potently inhibiting activation of PDGF-Rα by PDGF-C, i.e. monoclonal antibodies 2D3, 5A2, 5H7, 16B1 and 29H1. Further included are two antibodies capable of binding to PDGF-C, but not or very poorly inhibiting activation of PDGF-Rα by PDGF-C, i.e. monoclonal antibodies 12E5 (IgG1) and 19F12 (IgG2b) (see Example 4). […] For all antibodies, it was confirmed that they bind to human PDGF-C and binding to full-length human PDGF-C was for all antibodies tested more efficient than binding to any of the peptides identified as described hereafter.
The indicated peptides where synthesized in an N-terminally biotinylated form and coated onto a neutravidin plate (Thermo Scientific, Cat. 15127) at a concentration of 10 μg/mL. The antibodies listed in the table were incubated in each well at a concentration of 1 μg/mL and, following washing, were then detected in a standard ELISA format using an appropriate, HRP-labeled secondary antibody (goat anti-mouse IgG-HRP for all antibodies except sc-80290, and goat anti-rat IgG-HRP for sc-80290). Each antibody was tested at least twice, and up to 4 times. A “+” in the table indicate that a signal to background >3 was found and confirmed at least once. The background signal was measured in the absence of peptide using both the primary and the secondary antibodies. Antibodies sc-80290 and MAB1560 were tested only against peptides 42-63 since this represents the fraction of the protein that was used as an immunogen.

[2] = target: T2, PDGFRα activation by human PDGF-C (Homo sapiens, UniProt Q9NRA1); assay: PathHunter PDGFRα receptor tyrosine kinase assay in U2OS PDGFRα PLCG1 cells; type: cell-based
T2 construct: the growth factor domain of PDGF-C (amino acids 235-345 of human PDGF-C); purchased R&D Systems 1687-CC/CF; host or cells: ligand added to U2OS PDGFRα PLCG1 cells (DiscoveRx, assay 93-0823C3) that express the transfected receptor
T2 sequence (Q9NRA1 235-345): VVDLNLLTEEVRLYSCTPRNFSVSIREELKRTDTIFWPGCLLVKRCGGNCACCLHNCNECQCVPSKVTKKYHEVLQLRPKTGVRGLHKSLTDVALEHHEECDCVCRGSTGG
Source text: To evaluate the inhibitory activity of anti-human PDGF-C antibodies on PDGFRα activation by human PDGF-C, the PathHunter® receptor tyrosine kinase assay for PDGFRα (93-0823C3) from DiscoveRx® was used. […] A small complementing fragment of β-gal, the Prolink™ tag (PK) has been fused recombinantly to the intracellular C-terminus of the receptor tyrosine kinase PDGFRα. The larger portion of β-gal, termed EA for enzyme acceptor, is co-expressed with an SH2 (Src Homology 2) phosphotyrosine binding domain. Ligand-induced activation of the receptor results in dimerization and intra-cellular cross-phosphorylation of the receptor. Subsequently, the SH2 domain specifically binds the phosphorylated receptor resulting in the complementation of the two β-gal fragments PK and EA, and formation of a functional β-gal enzyme. Following addition of a β-gal substrate, an easily detectable chemiluminescent signal is produced which is directly correlated to receptor activation. The LumiLITE™ microplate reader is fully compatible with all EFC-based assays of DiscoveRx® and is therefore used.
For the PathHunter® PDGFRα, assay, U2OS PDGFRα, PLCG1 (phospholipase Cγ as the source of the SH2 domain) cells from DiscoveRx® were used. Frozen cells were stored in liquid nitrogen. Upon thawing, cells were resuspended in pre-warmed thawing medium (i.e. culture medium without the selection antibiotics Geneticin and Hygromycin B). After 48 hours of culture in a 5% CO2 incubator at 37° C., thawing medium was replaced by culture medium (MEM Eagle 1× (30-2003 from Invitrogen), 10% fetal bovine serum (SH30071.03 from Perbio Science), 1× Penicillin-Streptomycin-Glutamine (10378-016 from Invitrogen), 250 μg/ml Hygromycin B (10687-010 from Invitrogen), 500 μg/ml Geneticin (10131-035 from Invitrogen)). Once confluence was reached, cells were passaged with a ⅓ dilution every 2-3 days using Accutase (L11-007 from PAA). Cells were maintained in a non-confluent state during routine culture.
In the PathHunter® PDGFRα, assay, the U2OS PDGFRα, PLCG1 cells from DiscoveRx® cultured up to 10 passages were used. Cells were seeded at 20.000 cells in 100 μl per well in 96-well white culture-treated microplates with clear bottom (3610 from Corning). The PathHunter® Cell Plating 16 Reagent (93-0563R16 from DiscoveRx®) was employed as seeding medium. Following 24 hours of culture in 5% CO2 at 37° C., 25 μl of a 5-fold concentrated agonist solution in Cell Plating 16 Reagent was used per well to stimulate the cells. Recombinant human PDGF-C from R&D Systems (1687-CC/CF; Va1235-Gly345) was applied as agonist. After 3 hours incubation at room temperature, 60 μl of PathHunter® detection reagent (93-0001 from DiscoveRx®; 1 part Galacton Star® Substrate, 5 parts Emerald II™ Solution, and 19 parts of PathHunter® Cell Assay Buffer) was added. Cells were placed at room temperature and in the dark for another hour before luminescence was measured with the LumiLITE™ microplate reader. With GraphPad Prism® software, a non-linear regression analysis was performed using the obtained luminescent values in order to generate a sigmoidal agonist dose-response curve with variable slope. The EC50 (i.e. half maximal effective concentration) and EC80 value (i.e. the effective concentration that leads to 80% of the maximal response) for human PDGF-C was calculated.
To evaluate the inhibitory activity of anti-human PDGF-C antibodies on PDGFRα, activation by human PDGF-C, equal volumes of […] concentrated solutions of anti-human PDGF-C antibodies and the EC80 of human PDGF-C, prepared in Cell Plating 16 Reagent, were mixed and the assay was performed as described above. As positive controls, an anti-human PDGF-C polyclonal goat IgG antibody (AF1560 from R&D Systems) and recombinant human PDGFRα, Fc chimera (6765-PR from R&D Systems) were employed. […]

glioblastoma tumor, U118 = assay: Antitumor effect against U118 glioblastoma xenograft; type: in vivo
Description: For the evaluation of anti-tumor activity of the antibodies, animals were weighed and tumors measured 2 times weekly using a caliper. Tumor weights were calculated using the formula mass (mg)=[length (mm)×width (mm)^2]/2. Antitumor activity evaluation was done at the single dose of 20 mg/kg. A dosage producing a 20% body weight loss (bwl) or 10% or more drug deaths, was considered an excessively toxic dosage. Animal body weights included the tumor weights. The primary efficacy end point is the tumor growth inhibition (% TGI). Changes in tumor volume for each treated (T) and control (C) are calculated for each tumor by subtracting the tumor volume on the day of first treatment (staging day) from the tumor volume on the specified observation day. The median ΔT is calculated for the treated group and the median ΔC is calculated for the control group. Then the ratio ΔT/ΔC is calculated and expressed as a percentage of TGI: ΔT=Tt−T0 ΔC=Ct−C0 % TGI=[1−(median(Tt−T0)/median(Ct−C0)]*100
The antitumor effect of 29H1, 5A2 and 16B1 was evaluated against a measurable glioblastoma tumor, U118, which express both PDGF-C and its receptor, PDGFRa, S.C. implanted in female SCID Beige mice. Control group was treated with PBS alone. The antibodies were administered by an intraperitoneal (IP) injection, and treatment started on day 28 post-tumor implantation and was performed twice a week.

PDGF-C = target: T3, PDGF-C (Homo sapiens, UniProt Q9NRA1); assay: Surface Plasmon Resonance affinity of anti-PDGF-C antibodies for PDGF-C (Biacore 3000); type: binding; conditions: humanized antibodies; as in Example 3
T3 construct: the growth factor domain of PDGF-C (amino acids 235-345 of human PDGF-C); purchased R&D Systems 1687-CC/CF
T3 sequence (Q9NRA1 235-345): as above
Description: The different antibodies were each separately coated to a CM5 chip at a density of 1680 RU using standard amine chemistry. Different concentrations (200, 175, 150, 125, 100, 75, 50, 25, 12.5, 6.25, 3.125 & 0 nM) of PDGF-C (R&D Systems, Cat. 1687-CC/CF) were injected over the coated antibody for 5 min, then buffer was flowed for 10 min to monitor the dissociation of the captured antigen. The surface was regeneration between each run with a single injection of glycine-HCl, pH 2.5. Affinities were obtained by analyzing the sensorgrams with the help of the BIAevaluation 4.1 software assuming a 1:1 interaction. The experiment was performed with a Biacore 3000 instrument.
The affinity of the above-listed exemplary humanized anti-PDGF-C antibodies for PDGF-C was analysed (as in Example 3) and the humanized antibodies were subsequently assessed in the in vitro bioassay described in Example 4.

B1: 29H1: murine monoclonal anti-PDGF-C antibody, IgG1 κ; VL SEQ ID NO:17, VH SEQ ID NO:21 (antibody, listed as Mus musculus, V domains shown)
VH: EVQLVESGGDLVKPGGSLKLSCAASGFTFSNYGMSWVRQTPDKRLEWVATIGSGGHYTYYPDSVKGRFTISRDSAKSTLYLQMSSLRSDDTAIYYCARQAPLWDCSDYWGQGTTLTVSS
VL: DVLMTQTPLSLPVSLGDQASISCRSNQSIVHSNGDTYLEWYLQKPGQSPNLLIYKVSNRFSGVPDRFSGSGSGTDFTLKISRVEAEDLGVYYCFQGSHVPPTFGGGTKLEIK
**Q.** What does the source list for B1?
**A.** binding to peptide No 58 (SEQ ID NO: 96) VLQLRPKTGVRGLHK [1]: + (A “+” in the table indicate that a signal to background >3 was found and confirmed at least once); IC50 ([2]; Table 5 first IC50 column, PDGF-C at EC80, * average of 3 measurements): 3.45 nM; IC50 ([2]; Table 5 second IC50 column (separate experiment), PDGF-C at EC80): 0.87 nM; IC50 ([2]; Table 5 third IC50 column (separate experiment), PDGF-C at EC80): 0.24 nM; tolerability / body weight loss (glioblastoma tumor, U118; 20 mg/kg IP twice a week): well-tolerated with no tumor body weight loss; TGI (%) Day 53 (glioblastoma tumor, U118; 20 mg/kg IP twice a week from day 28, day 53 post-tumor implantation): 39.4%; TGI (%) Day 56 (glioblastoma tumor, U118; 20 mg/kg IP twice a week from day 28, day 56 post-tumor implantation): 53.0%; TGI (%) Day 60 (glioblastoma tumor, U118; 20 mg/kg IP twice a week from day 28, day 60 post-tumor implantation): 53.8%; TGI (%) Day 63 (glioblastoma tumor, U118; 20 mg/kg IP twice a week from day 28, day 63 post-tumor implantation): 42.8%; TGI (%) Day 67 (glioblastoma tumor, U118; 20 mg/kg IP twice a week from day 28, day 67 post-tumor implantation): 50.0%

B2: Humanized mAb 29H1: humanized 29H1; VH SEQ ID NO:106, VL SEQ ID NO:107 (antibody, V domains shown)
VH: EVQLLESGGGLVQPGGSLRLSCAASGFTFSNYGMSWVRQTPGKGLEWVATIGSGGHYTYYPDSVKGRFTISRDNAKNTLYLQMNSLRAEDTAVYYCARQAPLWDCSDYWGQGTLLTVSS
VL: DVVMTQSPLSLPVTLGQPASISCRSSQTIVHSDGTTYLEWYLQKPGQSPRLLIYKVSNRFSGVPDRFSGSGSGTDFTLKISRVEAEDVGVYYCFQGSHVPPTFGQGTKLEIK
modifications: humanized variable heavy chain murine monoclonal antibody 29 H1; humanized variable light chain murine monoclonal antibody 29 H1
**Q.** For B2, which Kd (PDGF-C) is on record?
**A.** 0.7 nM

**Q.** And the IC50 ([2]; humanized antibodies, * average of 3 measurements)?
**A.** 8.24 nM
